“Also recorded” adds a separate entry of the source. Where two headings read alike, the source gives them in different places.
Legend:
[1] = Heparin lyase activity assay (change of absorbance at 232 nm), heparan sulfate as substrate; assay type: biochemical
Method: The spectrophotometer was adjusted to the optimum temperature of the particular lyase being assayed. […] A measured quantity of lyase was added, bringing the final volume to 400 μl and the cuvette was gently mixed. The microcuvette was then immediately returned to the spectrophotometer and the change of absorbance at 232 nm was measured at 10 seconds intervals over 3 min. […] The specific activity was then calculated by dividing the micromoles of product produced per minute by the milligrams of protein in the cuvette. […] G., and Linhardt, R. J. (1989) Carbohydr. Res. 190, 219-233. Protein concentration was measured by the Bradford assay, Bradford, M. M. (1976) Anal. Biochem. 72, 248-254, based on a bovine serum albumin standard curve. […] The activities of each lyase (I acting on heparin, II acting on both heparin and heparan sulfate, and III acting on heparan sulfate) were then determined at different pH values. The buffer giving optimum activity for each heparin lyase was selected by testing buffers with buffering capacity near the pH optima calculated in the previous experiments. These buffers were: Tris-HCl, sodium phosphate, HEPES, MOPS, TES, and BTP-CHl. […] The heparin lyase assay solutions were made by diluting enzyme in 50 mM sodium phosphate buffer adjusted to the appropriate pH as previously described. Heparin lyase activity was determined in each buffer. Activity was assayed both immediately after addition to each buffer and following incubation for 24 h at 37° C. The salt concentration for optimum activity was investigated. Sodium chloride, potassium chloride, and sodium and potassium acetate were used to differentiate between ionic strength and specific ion affects. […] The temperature was adjusted in a temperature-regulated spectrophotometer and equilibrated for 10 min before the assay was started. Michaelis-Menten constants were determined using the optimized conditions. The final absorbance value for total depolymerization was divided by 20 to find a value that represented 5% reaction completion. The purified lyase preparations were diluted so that 5% of total depolymerization would be reached only at the end of a 3-min assay. The reaction velocities at specific molar concentrations for each lyase and their substrates were used for kinetic analysis using EZ-FIT hyperbolic curve-fitting program of […]. (1988) Anal. Biochem. 174, 437-447). Substrate solutions were prepared from 50 mg/ml heparin and 40 mg/ml for heparan sulfate stock solutions. […] The amount of purified lyase used was sufficient for complete depolymerization of heparin or heparan sulfate substrates within 30 min. The initial rate of depolymerization of each polysaccharide was measured, the reaction was then continued for 24 h, and the final level of polysaccharide depolymerization was assessed by measuring the final absorbance at 232 nm and expressed as percent activity.

[2] = Heparin lyase activity: effect of divalent metals and added salt, substrate specificity (each lyase on its substrates); assay type: biochemical; details: for effect of added salt on activity: increasing salt concentration, 0-500 mM
Method: The spectrophotometer was adjusted to the optimum temperature of the particular lyase being assayed. A 700 μl quartz microcuvette containing 400 μg of substrate in 50 mM sodium phosphate buffer (containing 100 mM sodium chloride for heparin lyase I) was thermally equilibrated. A measured quantity of lyase was added, bringing the final volume to 400 μl and the cuvette was gently mixed. The microcuvette was then immediately returned to the spectrophotometer and the change of absorbance at 232 nm was measured at 10 seconds intervals over 3 min. The activity was measured from the change of absorbance/unit time using an extinction coefficient of 3800 M^−1 for products. The specific activity was then calculated by dividing the micromoles of product produced per minute by the milligrams of protein in the cuvette. The molecular weights used for heparin, heparan sulfate, and the chondroitin sulfates were 14,000, 20,000 and 25,000, respectively, Rice, K. G., and Linhardt, R. J. (1989) Carbohydr. Res. 190, 219-233. Protein concentration was measured by the Bradford assay, Bradford, M. M. (1976) Anal. Biochem. 72, 248-254, based on a bovine serum albumin standard curve.
BTP-HCl buffer (50 mM) was prepared containing either 10 mM calcium chloride, 10 μM or 1 mM copper (II) chloride, 10 μM and 1 mM mercury (II) chloride, and 1 mM zinc (II) chloride. Each solution was adjusted to the optimum pH for the lyase being tested, and the activity of the heparin lyases was measured in the presence and absence of divalent metals.
The salt concentration for optimum activity was investigated. Sodium chloride, potassium chloride, and sodium and potassium acetate were used to differentiate between ionic strength and specific ion affects. Added salt concentrations varied between 0 and 500 mM and were prepared in 50 mM sodium phosphate buffer after which the pH was adjusted to each enzyme's optimum and the heparin lyase activity was measured.
Each heparin lyase was added to a solution of complex polysaccharides (1 mg/ml) under optimized assay conditions, and the reaction was monitored at 232 nm for 30 min. The amount of purified lyase used was sufficient for complete depolymerization of heparin or heparan sulfate substrates within 30 min. The initial rate of depolymerization of each polysaccharide was measured, the reaction was then continued for 24 h, and the final level of polysaccharide depolymerization was assessed by measuring the final absorbance at 232 nm and expressed as percent activity.

[3] = Isoelectric focusing on agarose gel; assay type: physicochemical; details: agarose IEF
Method: IEF gel electrophoresis was run on pre-cast agarose gels (85×100 mm). Two electrode wicks were wetted with 1M phosphoric acid (anolyte) and 1M sodium hydroxide (catholyte). Electrophoresis was at 5 watts for 5 min, then at 10 watts for 1 h until the voltage was constant at 1200 V. The gel was immediately fixed in 15% aqueous trichloroacetic acid, blotted and rinsed with water, dried overnight, stained by using Coomassie G-250, and destained.

[4] = Temperature stability of lyase activity; assay type: physicochemical; details: protein 650 ng/ml
Method: Lyase assay stock solutions were prepared in the appropriate buffer and placed in water baths at the following temperatures: heparin lyase I at 30° C., heparin lyase II at 35° C., and heparin lyase III at both 35° and 40° C. […]

[5] = Activity remaining after incubation in buffers for 24 h at 37° C.; assay type: physicochemical; details: MOPS and HEPES
Method: The buffer giving optimum activity for each heparin lyase was selected by testing buffers with buffering capacity near the pH optima calculated in the previous experiments. These buffers were: Tris-HCl, sodium phosphate, HEPES, MOPS, TES, and BTP-CHl. Each buffer was prepared at 50 mM, and its pH was adjusted with hydrochloric acid or sodium hydroxide to 6.9 for heparin lyase II acting on heparin, 7.15 for heparin lyase I, 7.3 for heparin lyase II acting on heparan sulfate, and 7.6 for heparin lyase III. The heparin lyase assay solutions were made by diluting enzyme in 50 mM sodium phosphate buffer adjusted to the appropriate pH as previously described. Heparin lyase activity was determined in each buffer. Activity was assayed both immediately after addition to each buffer and following incubation for 24 h at 37° C.

B1: Heparin lyase III: heparin lyase III (heparitinase EC 4.2.2.8) purified to homogeneity from Flavobacterium heparinum (protein, UniProt Q59289 25-659, looked up)
Heparin-sulfate lyase: QSSSITRKDFDHINLEYSGLEKVNKAVAAGNYDDAAKALLAYYREKSKAREPDFSNAEKPADIRQPIDKVTREMADKALVHQFQPHKGYGYFDYGKDINWQMWPVKDNEVRWQLHRVKWWQAMALVYHATGDEKYAREWVYQYSDWARKNPLGLSQDNDKFVWRPLEVSDRVQSLPPTFSLFVNSPAFTPAFLMEFLNSYHQQADYLSTHYAEQGNHRLFEAQRNLFAGVSFPEFKDSPRWRQTGISVLNTEIKKQVYADGMQFELSPIYHVAAIDIFLKAYGSAKRVNLEKEFPQSYVQTVENMIMALISISLPDYNTPMFGDSWITDKNFRMAQFASWARVFPANQAIKYFATDGKQGKAPNFLSKALSNAGFYTFRSGWDKNATVMVLKASPPGEFHAQPDNGTFELFIKGRNFTPDAGVFVYSGDEAIMKLRNWYRQTRIHSTLTLDNQNMVITKARQNKWETGNNLDVLTYTNPSYPNLDHQRSVLFINKKYFLVIDRAIGEATGNLGVHWQLKEDSNPVFDKTKNRVYTTYRDGNNLMIQSLNADRTSLNEEEGKVSYVYNKELKRPAFVFEKPKKNAGTQNFVSIVYPYDGQKAPEISIRENKGNDFEKGKLNLTLTINGKQQLVLVP
Unit/mg (specific activity) ([1]; final GPC-HPLC purification step, acting on heparan sulfate): 63.5 Unit/mg
average number of sites acted at in the heparan sulfate polymer ([1]; final level of depolymerization, 24 h): 20 sites
initial activity in six buffers (Tris-HCl, sodium phosphate, HEPES, MOPS, TES, BTP-HCl) ([1]; heparan sulfate, 50 mM buffer at optimum pH): only slight differences in activity
temperature for maximum activity ([1]; heparan sulfate, 50 mM sodium phosphate at optimum pH, 15-55° C.): 45 °C
Km ([1]; heparan sulfate, II: 35° C., pH 6.9, III: 35° C., pH 7.6, value ± standard error, read-out: Km(app)): 29.4 ± 3.16 µM
optimum temperature (summary) ([1]; heparan sulfate, activity greater at higher temperatures but stability reduced): 35 °C
Vmax ([1]; heparan sulfate, optimized conditions, value ± standard error): 141 ± 3.88 μmol/min mg protein
pH optimum for activity ([1]; on heparan sulfate): 7.6
specific activity ([1]; purified lyase, toward heparan sulfate): 63.5 units/mg
Km (Michelis-Menton constant, summary) ([1]; with heparan sulfate): 0.780 mg/mL
V(max) (summary) ([1]; with heparan sulfate): 277.01
Km ([1]; with heparan sulfate, read-out: Km (Michelis-Menton constant, summary)): 110 µM
substrates acted on [2]: acts only on heparan sulfate
effect of copper on activity ([2]; 10 μM copper (II) chloride): unaffected
effect of mercury on activity ([2]; 10 μM mercury (II) chloride): unaffected
effect of copper on activity ([2]; 1 mM copper (II) chloride): inhibited
effect of mercury on activity ([2]; 1 mM mercury (II) chloride): inhibited
effect of zinc on activity ([2]; 1 mM zinc (II) chloride): inhibited
effect of calcium on activity (increase) ([2]; 10 mM calcium chloride, 50 mM BTP-HCl): 20%
effect of added salt on activity [2]: decrease in activity; also recorded: decreases
effect of added salt on activity ([2]; listed as heparinase III): not observed
pI (isoelectric point) [3]: ~9.2
pI (isoelectric point) ([3]; listed as heparin lyase III): 9.9-10.1
time in which 80% of activity was lost ([4]; 35° C.): 3.5 h
time in which 80% of activity was lost ([4]; 40° C.): 0.5 h
retention of activity after incubation [5]: 15-30%
